Measurements as given in FireProtDB (doi:10.1006/jmbi.1999.2569).

Settings: Bacillus amyloliquefaciens; pH 6.3; Thermal; DSC; MES 50 mM; whole UniProt chain shown

B1: Ribonuclease wild type, P00648 (protein)
chain: MMKMEGIALKKRLSWISVCLLVLVSAAGMLFSTAAKTETSSHKAHTEAQVINTFDGVADYLQTYHKLPDNYITKSEAQALGWVASKGNLADVAPGKSIGGDIFSNREGKLPGKSGRTWREADINYTSGFRNSDRILYSSDWLIYKTTDHYQTFTKIR
Tm: 54.1 °C
